# In patent US20230192842A1 (published 2023):
# Where a chain is given by its changes, count along the chain named.
# T1: human CLDN3 N38A mutant on RKO KO cells (human, UniProt O15551 1-220)
# T1 construct: Single-point alanine mutant, monoclonal RKO KO line with GFP
# T1 chain: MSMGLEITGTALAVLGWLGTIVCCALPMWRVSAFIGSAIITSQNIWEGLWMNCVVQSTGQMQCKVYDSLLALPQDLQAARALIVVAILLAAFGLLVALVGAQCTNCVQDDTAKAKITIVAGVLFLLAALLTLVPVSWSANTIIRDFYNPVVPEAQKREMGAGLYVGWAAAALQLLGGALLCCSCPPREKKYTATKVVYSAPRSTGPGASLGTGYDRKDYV
# T2: human CLDN3 E153A mutant on RKO KO cells (human, UniProt O15551 1-220)
# T2 construct: Single-point alanine mutant, monoclonal RKO KO line with GFP
# T2 chain: T1 chain with A38N, E153A
# B1: 906-mAb (anti-CLDN3 906-mAb, monoclonal antibody version of the scFv of 906-009_LNGFR) (antibody, V domains shown)
# VH: QVQLVQSGAEVKKPGSSVKVSCKASGYTFTNYWVHWVRQAPGQGLEWMGRIEPNSSGSQYNEKFKNRVTITADKSTSTAYMELSSLRSEDTAVYYCARGVMVPLDYWGQGTLVTVSS
# VL: DIQMTQSPSSLSASVGDRVTITCKASQDINRYIAWYQQKPGKAPKLLIHYTSTLQPGVPSRFSGSGSGTDFTLTISSLQPEDFATYYCLQYETLYSFGQGTKLEIK
# Key:
# [1] = target: human CLDN3 N148A mutant on RKO KO cells (human) (UniProt O15551); experiment: flow cytometry, % 906-mAb-PE positive of live cells
# Sequence of human CLDN3 N148A mutant on RKO KO cells (human) (O15551 whole entry N148A): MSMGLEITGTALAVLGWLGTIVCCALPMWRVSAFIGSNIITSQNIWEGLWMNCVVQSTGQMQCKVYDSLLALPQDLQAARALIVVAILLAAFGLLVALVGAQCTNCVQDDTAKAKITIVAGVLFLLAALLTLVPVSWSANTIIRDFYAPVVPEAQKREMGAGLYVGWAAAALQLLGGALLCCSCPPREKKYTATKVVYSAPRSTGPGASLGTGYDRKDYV
# [2] = target: human CLDN3 V150A mutant on RKO KO cells (human) (UniProt O15551); experiment: as above
# Sequence of human CLDN3 V150A mutant on RKO KO cells (human) (O15551 whole entry V150A): as the sequence (O15551 whole entry N148A) above, with A148N, V150A counted along it
# [3] = target: human CLDN3 R157A mutant on RKO KO cells (human) (UniProt O15551); experiment: as above
# Sequence of human CLDN3 R157A mutant on RKO KO cells (human) (O15551 whole entry R157A): as the sequence (O15551 whole entry N148A) above, with A148N, R157A counted along it
# [4] = target: human CLDN3 P149A mutant on RKO KO cells (human) (UniProt O15551); experiment: as above
# Sequence of human CLDN3 P149A mutant on RKO KO cells (human) (O15551 whole entry P149A): as the sequence (O15551 whole entry N148A) above, with A148N, P149A counted along it
# [5] = target: T1, human CLDN3 N38A mutant on RKO KO cells; experiment: as above
# Description: (§1) Flow cytometry. RKO KO target cells were seeded for flow cytometry as described in previous sections. Wells were topped up with flow buffer (PBS+2% FBS+2 mM EDTA+0.05% sodium azide) and plates were centrifuged at 300×g for 5 minutes. Supernatant was flicked off, cells were resuspended in 150 uL flow buffer. Plate was centrifuged at 300×g for 5 minutes. Supernatant was flicked off and cells were resuspended in 50 uL IgG block at 1:100 for 10 minutes at RT. Following incubation, plate was washed twice as above. Cells were resuspended in 50 uL of diluted antibodies (all a 1 in 300 dilution) in flow buffer, or flow buffer alone (unstained control). Cells were incubated for 30 minutes at RT. After incubation, plates were washed twice with 150 uL flow buffer. […]
# (§2) Data Analysis: Flow Cytometry. Flow cytometry data was analysed using FLOWJO and further analysed in Microsoft excel and RStudio. […] Statistics for % PE-positive cells (as % of live cells) and Median Fluorescence Intensity (MFI) were calculated in FLOWJO and exported to Microsoft Excel for further analysis. […] Briefly, MFI was log 10 transformed and a mixed model was used with a fixed effect for cell line and a random effect for Plate, whilst % Parent was analysed on a linear scale in a mixed model with a fixed effect for cell line and a random effect for plate.
# [6] = target: T2, human CLDN3 E153A mutant on RKO KO cells; experiment: as above
# Description: as §1, §2
# [7] = target: human CLDN3 Q43A mutant on RKO KO cells (human) (UniProt O15551); experiment: flow cytometry, 906-mAb-PE on RKO KO cells expressing the mutant
# Sequence of human CLDN3 Q43A mutant on RKO KO cells (human) (O15551 whole entry Q43A): as the sequence (O15551 whole entry N148A) above, with Q43A, A148N counted along it
# [8] = target: human CLDN3 F34A mutant on RKO KO cells (human) (UniProt O15551); experiment: as above
# Sequence of human CLDN3 F34A mutant on RKO KO cells (human) (O15551 whole entry F34A): as the sequence (O15551 whole entry N148A) above, with F34A, A148N counted along it
# [9] = target: human CLDN3 N148A mutant on RKO KO cells (human) (UniProt O15551); experiment: as above
# [10] = target: human CLDN3 V150A mutant on RKO KO cells (human) (UniProt O15551); experiment: as above
# [11] = target: human CLDN3 I39A mutant on RKO KO cells (human) (UniProt O15551); experiment: as above
# Sequence of human CLDN3 I39A mutant on RKO KO cells (human) (O15551 whole entry I39A): as the sequence (O15551 whole entry N148A) above, with I39A, A148N counted along it
# [12] = target: human CLDN3 S42A mutant on RKO KO cells (human) (UniProt O15551); experiment: as above
# Sequence of human CLDN3 S42A mutant on RKO KO cells (human) (O15551 whole entry S42A): as the sequence (O15551 whole entry N148A) above, with S42A, A148N counted along it
# [13] = target: human CLDN3 P152A mutant on RKO KO cells (human) (UniProt O15551); experiment: as above
# Sequence of human CLDN3 P152A mutant on RKO KO cells (human) (O15551 whole entry P152A): as the sequence (O15551 whole entry N148A) above, with A148N, P152A counted along it
# [14] = target: human CLDN3 Q155A mutant on RKO KO cells (human) (UniProt O15551); experiment: as above
# Sequence of human CLDN3 Q155A mutant on RKO KO cells (human) (O15551 whole entry Q155A): as the sequence (O15551 whole entry N148A) above, with A148N, Q155A counted along it
# [15] = target: human CLDN3 R157A mutant on RKO KO cells (human) (UniProt O15551); experiment: as above
# [16] = target: human CLDN3 K156A mutant on RKO KO cells (human) (UniProt O15551); experiment: as above
# Sequence of human CLDN3 K156A mutant on RKO KO cells (human) (O15551 whole entry K156A): as the sequence (O15551 whole entry N148A) above, with A148N, K156A counted along it
# [17] = target: human CLDN3 I45A mutant on RKO KO cells (human) (UniProt O15551); experiment: as above
# Sequence of human CLDN3 I45A mutant on RKO KO cells (human) (O15551 whole entry I45A): as the sequence (O15551 whole entry N148A) above, with I45A, A148N counted along it
# [18] = target: human CLDN3 P149A mutant on RKO KO cells (human) (UniProt O15551); experiment: as above
# [19] = target: T1, human CLDN3 N38A mutant on RKO KO cells; experiment: as above
# Description: (§3) Flow cytometry. RKO KO target cells were seeded for flow cytometry as described in previous sections. Wells were topped up with flow buffer (PBS+2% FBS+2 mM EDTA+0.05% sodium azide) and plates were centrifuged at 300×g for 5 minutes. Supernatant was flicked off, cells were resuspended in 150 uL flow buffer. Plate was centrifuged at 300×g for 5 minutes. Supernatant was flicked off and cells were resuspended in 50 uL IgG block at 1:100 for 10 minutes at RT. Following incubation, plate was washed twice as above. Cells were resuspended in 50 uL of diluted antibodies (all a 1 in 300 dilution) in flow buffer, or flow buffer alone (unstained control). Cells were incubated for 30 minutes at RT. After incubation, plates were washed twice with 150 uL flow buffer. Cells were then resuspended in 100 uL flow buffer containing DAPI at a 1:200 concentration as a live/dead stain. Cells were run immediately on the CYTOFLEXS. Cells were acquired on fast flow rate, with a stopping condition of 10,000 live cells (based on Total>Singlets>Live).
# (§4) Cell lines for analysis included RKO KO, a CLDN3 knockout (included as a negative control), RKO KO CLDN3 mutant cells (with various single-amino acid CLDN3 mutations) and RKO KO CLDN3 WT cells (positive control). RKO KO CLDN3 mutant cell lines were selected and generated as outlined in previous sections.
# [20] = target: T2, human CLDN3 E153A mutant on RKO KO cells; experiment: as above
# Description: as §3, §4
binder,measurement,setting,value
B1,Change in % Parent (906-mAb-PE positive cells) vs CLDN3 WT,[1],0.1%
same,Change in % Parent (906-mAb-PE positive cells) vs CLDN3 WT,[2],0%
same,Change in % Parent (906-mAb-PE positive cells) vs CLDN3 WT,[3],0.1%
same,Change in % Parent (906-mAb-PE positive cells) vs CLDN3 WT,[4],0.1%
same,Change in % Parent (906-mAb-PE positive cells) vs CLDN3 WT,[5],-99.2%
same,Change in % Parent (906-mAb-PE positive cells) vs CLDN3 WT,[6],-94.5%
same,fold change MFI vs CLDN3 WT (fold vs CLDN3 WT),[7],2.68
same,fold change MFI vs CLDN3 WT (fold vs CLDN3 WT),[8],0.4
same,fold change MFI vs CLDN3 WT (fold vs CLDN3 WT),[9],2.75
same,fold change MFI vs CLDN3 WT (fold vs CLDN3 WT),[10],2.98
same,fold change MFI vs CLDN3 WT (fold vs CLDN3 WT),[11],0.95
same,fold change MFI vs CLDN3 WT (fold vs CLDN3 WT),[12],3.91
same,fold change MFI vs CLDN3 WT (fold vs CLDN3 WT),[13],5.07
same,fold change MFI vs CLDN3 WT (fold vs CLDN3 WT),[14],3.4
same,fold change MFI vs CLDN3 WT (fold vs CLDN3 WT),[15],1.31
same,fold change MFI vs CLDN3 WT (fold vs CLDN3 WT),[16],0.73
same,fold change MFI vs CLDN3 WT (fold vs CLDN3 WT),[17],3.17
same,fold change MFI vs CLDN3 WT (fold vs CLDN3 WT),[18],2.03
same,binding result,[19],no binding
same,binding result,[20],no binding
